*1 amine or outer side, *2 acyl side, *3 side chain or, on linkers, in order; H or OH if unused. Where no end group is shown, it is not given here. Side-chain parts run from the residue outwards. [ ]: non-standard residue; d: D form. The star is where a group is joined. henicosanoyl = CCCCCCCCCCCCCCCCCCCCC(=O)*; γGlu = O=C(O)[C@H](CCC(=O)[*:2])N[*:1]; Stearoyl = CCCCCCCCCCCCCCCCCC(=O)*; Palmitoyl = CCCCCCCCCCCCCCCC(=O)*; Aib = CC(C)(N)C(=O)O; GABA = NCCCC(=O)O
T1: human GIP receptor (human, UniProt P48546 22-466)
T1 sequence (looked up): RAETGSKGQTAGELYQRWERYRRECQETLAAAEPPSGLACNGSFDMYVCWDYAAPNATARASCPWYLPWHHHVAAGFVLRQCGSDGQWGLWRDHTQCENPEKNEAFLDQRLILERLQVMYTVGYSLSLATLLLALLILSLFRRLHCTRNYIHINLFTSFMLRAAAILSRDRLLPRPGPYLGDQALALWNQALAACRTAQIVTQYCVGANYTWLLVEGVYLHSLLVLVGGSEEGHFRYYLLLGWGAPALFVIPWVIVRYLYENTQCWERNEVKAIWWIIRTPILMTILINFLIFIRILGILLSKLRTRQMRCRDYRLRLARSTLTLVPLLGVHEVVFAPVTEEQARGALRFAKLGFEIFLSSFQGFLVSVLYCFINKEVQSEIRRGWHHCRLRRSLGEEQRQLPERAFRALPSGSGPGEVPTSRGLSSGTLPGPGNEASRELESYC


What was measured:
Assay in all cases: cell-based or functional assay
human GIP receptor = molecular target: T1, human GIP receptor
human glucagon receptor = human glucagon receptor (human, UniProt P47871 26-477)
human GLP-1 receptor = human GLP-1 receptor (human, UniProt P43220 24-463)

human glucagon receptor, sequence (P47871 26-477): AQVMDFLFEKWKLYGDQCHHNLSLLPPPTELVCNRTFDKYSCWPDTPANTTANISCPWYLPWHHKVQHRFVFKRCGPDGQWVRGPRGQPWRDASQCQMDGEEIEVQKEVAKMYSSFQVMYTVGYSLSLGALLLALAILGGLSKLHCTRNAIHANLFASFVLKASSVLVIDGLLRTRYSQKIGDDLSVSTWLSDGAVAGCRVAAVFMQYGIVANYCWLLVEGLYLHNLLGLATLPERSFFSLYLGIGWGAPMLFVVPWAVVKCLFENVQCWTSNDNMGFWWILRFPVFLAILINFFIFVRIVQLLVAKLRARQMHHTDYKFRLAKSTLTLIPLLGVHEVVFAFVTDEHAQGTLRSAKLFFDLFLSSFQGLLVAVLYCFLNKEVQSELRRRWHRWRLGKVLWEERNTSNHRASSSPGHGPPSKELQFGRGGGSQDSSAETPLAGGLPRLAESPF

Row | Binder | EC50 hGIP R [pM] (human GIP receptor) | EC50 hGLUC R [pM] (human glucagon receptor) | EC50 hGLP-1 R [pM] (human GLP-1 receptor)
1 | Y[Aib]EGTFTSDLSIQK([γGlu-Stearoyl])ESRAAQEFIEWLKAGGPSSGAPPPS-NH2 (N-terminus assumed; SMILES CCCCCCCCCCCCCCCCCC(=O)N[C@@H](CCC(=O)NCCCC[C@H](NC(=O)[C@H](CCC(N)=O)NC(=O)[C@@H](NC(=O)[C@H](CO)NC(=O)[C@H](CC(C)C)NC(=O)[C@H](CC(=O)O)NC(=O)[C@H](CO)NC(=O)[C@@H](NC(=O)[C@H](Cc1ccccc1)NC(=O)[C@@H](NC(=O)CNC(=O)[C@H](CCC(=O)O)NC(=O)C(C)(C)NC(=O)[C@@H](N)Cc1ccc(O)cc1)[C@@H](C)O)[C@@H](C)O)[C@@H](C)CC)C(=O)N[C@@H](CCC(=O)O)C(=O)N[C@@H](CO)C(=O)N[C@@H](CCCNC(=N)N)C(=O)N[C@@H](C)C(=O)N[C@@H](C)C(=O)N[C@@H](CCC(N)=O)C(=O)N[C@@H](CCC(=O)O)C(=O)N[C@@H](Cc1ccccc1)C(=O)N[C@H](C(=O)N[C@@H](CCC(=O)O)C(=O)N[C@@H](Cc1c[nH]c2ccccc12)C(=O)N[C@@H](CC(C)C)C(=O)N[C@@H](CCCCN)C(=O)N[C@@H](C)C(=O)NCC(=O)NCC(=O)N1CCC[C@H]1C(=O)N[C@@H](CO)C(=O)N[C@@H](CO)C(=O)NCC(=O)N[C@@H](C)C(=O)N1CCC[C@H]1C(=O)N1CCC[C@H]1C(=O)N1CCC[C@H]1C(=O)N[C@@H](CO)C(N)=O)[C@@H](C)CC)C(=O)O) [SEQ ID NO: 21] | 6.4 pM | 10100 pM | 4.8 pM
2 | Y[Aib]EGTFTSDLSIQK([γGlu-Stearoyl])EKRAAQEFIEWLKNTGPSSGAPPPS-NH2 (N-terminus assumed; SMILES CCCCCCCCCCCCCCCCCC(=O)N[C@@H](CCC(=O)NCCCC[C@H](NC(=O)[C@H](CCC(N)=O)NC(=O)[C@@H](NC(=O)[C@H](CO)NC(=O)[C@H](CC(C)C)NC(=O)[C@H](CC(=O)O)NC(=O)[C@H](CO)NC(=O)[C@@H](NC(=O)[C@H](Cc1ccccc1)NC(=O)[C@@H](NC(=O)CNC(=O)[C@H](CCC(=O)O)NC(=O)C(C)(C)NC(=O)[C@@H](N)Cc1ccc(O)cc1)[C@@H](C)O)[C@@H](C)O)[C@@H](C)CC)C(=O)N[C@@H](CCC(=O)O)C(=O)N[C@@H](CCCCN)C(=O)N[C@@H](CCCNC(=N)N)C(=O)N[C@@H](C)C(=O)N[C@@H](C)C(=O)N[C@@H](CCC(N)=O)C(=O)N[C@@H](CCC(=O)O)C(=O)N[C@@H](Cc1ccccc1)C(=O)N[C@H](C(=O)N[C@@H](CCC(=O)O)C(=O)N[C@@H](Cc1c[nH]c2ccccc12)C(=O)N[C@@H](CC(C)C)C(=O)N[C@@H](CCCCN)C(=O)N[C@@H](CC(N)=O)C(=O)N[C@H](C(=O)NCC(=O)N1CCC[C@H]1C(=O)N[C@@H](CO)C(=O)N[C@@H](CO)C(=O)NCC(=O)N[C@@H](C)C(=O)N1CCC[C@H]1C(=O)N1CCC[C@H]1C(=O)N1CCC[C@H]1C(=O)N[C@@H](CO)C(N)=O)[C@@H](C)O)[C@@H](C)CC)C(=O)O) [SEQ ID NO: 19] | 13.8 pM | 708 pM | 4 pM
3 | Y[Aib]EGTFTSDLSIQK([γGlu-Palmitoyl])DSRAAQDFIEWLKAGGPSSGAPPPS-NH2 (N-terminus assumed; SMILES CCCCCCCCCCCCCCCC(=O)N[C@@H](CCC(=O)NCCCC[C@H](NC(=O)[C@H](CCC(N)=O)NC(=O)[C@@H](NC(=O)[C@H](CO)NC(=O)[C@H](CC(C)C)NC(=O)[C@H](CC(=O)O)NC(=O)[C@H](CO)NC(=O)[C@@H](NC(=O)[C@H](Cc1ccccc1)NC(=O)[C@@H](NC(=O)CNC(=O)[C@H](CCC(=O)O)NC(=O)C(C)(C)NC(=O)[C@@H](N)Cc1ccc(O)cc1)[C@@H](C)O)[C@@H](C)O)[C@@H](C)CC)C(=O)N[C@@H](CC(=O)O)C(=O)N[C@@H](CO)C(=O)N[C@@H](CCCNC(=N)N)C(=O)N[C@@H](C)C(=O)N[C@@H](C)C(=O)N[C@@H](CCC(N)=O)C(=O)N[C@@H](CC(=O)O)C(=O)N[C@@H](Cc1ccccc1)C(=O)N[C@H](C(=O)N[C@@H](CCC(=O)O)C(=O)N[C@@H](Cc1c[nH]c2ccccc12)C(=O)N[C@@H](CC(C)C)C(=O)N[C@@H](CCCCN)C(=O)N[C@@H](C)C(=O)NCC(=O)NCC(=O)N1CCC[C@H]1C(=O)N[C@@H](CO)C(=O)N[C@@H](CO)C(=O)NCC(=O)N[C@@H](C)C(=O)N1CCC[C@H]1C(=O)N1CCC[C@H]1C(=O)N1CCC[C@H]1C(=O)N[C@@H](CO)C(N)=O)[C@@H](C)CC)C(=O)O) [SEQ ID NO: 22] | 16.6 pM | 11600 pM | 32 pM
4 | Y[Aib]EGTFTSDLSIQK([GABA-Stearoyl])EKRAA[Aib]EFIEWLKNTGPSSGAPPPS-NH2 (N-terminus assumed; SMILES CCCCCCCCCCCCCCCCCC(=O)NCCCC(=O)NCCCC[C@H](NC(=O)[C@H](CCC(N)=O)NC(=O)[C@@H](NC(=O)[C@H](CO)NC(=O)[C@H](CC(C)C)NC(=O)[C@H](CC(=O)O)NC(=O)[C@H](CO)NC(=O)[C@@H](NC(=O)[C@H](Cc1ccccc1)NC(=O)[C@@H](NC(=O)CNC(=O)[C@H](CCC(=O)O)NC(=O)C(C)(C)NC(=O)[C@@H](N)Cc1ccc(O)cc1)[C@@H](C)O)[C@@H](C)O)[C@@H](C)CC)C(=O)N[C@@H](CCC(=O)O)C(=O)N[C@@H](CCCCN)C(=O)N[C@@H](CCCNC(=N)N)C(=O)N[C@@H](C)C(=O)N[C@@H](C)C(=O)NC(C)(C)C(=O)N[C@@H](CCC(=O)O)C(=O)N[C@@H](Cc1ccccc1)C(=O)N[C@H](C(=O)N[C@@H](CCC(=O)O)C(=O)N[C@@H](Cc1c[nH]c2ccccc12)C(=O)N[C@@H](CC(C)C)C(=O)N[C@@H](CCCCN)C(=O)N[C@@H](CC(N)=O)C(=O)N[C@H](C(=O)NCC(=O)N1CCC[C@H]1C(=O)N[C@@H](CO)C(=O)N[C@@H](CO)C(=O)NCC(=O)N[C@@H](C)C(=O)N1CCC[C@H]1C(=O)N1CCC[C@H]1C(=O)N1CCC[C@H]1C(=O)N[C@@H](CO)C(N)=O)[C@@H](C)O)[C@@H](C)CC) [SEQ ID NO: 17] | 9.6 pM | 9740 pM | 8.7 pM
5 | Y[Aib]EGTFTSDLSIQK([γGlu-henicosanoyl])EKRAA[Aib]EFIEWLKNTGPSSGAPPPS-NH2 (N-terminus assumed; SMILES CCCCCCCCCCCCCCCCCCCCC(=O)N[C@@H](CCC(=O)NCCCC[C@H](NC(=O)[C@H](CCC(N)=O)NC(=O)[C@@H](NC(=O)[C@H](CO)NC(=O)[C@H](CC(C)C)NC(=O)[C@H](CC(=O)O)NC(=O)[C@H](CO)NC(=O)[C@@H](NC(=O)[C@H](Cc1ccccc1)NC(=O)[C@@H](NC(=O)CNC(=O)[C@H](CCC(=O)O)NC(=O)C(C)(C)NC(=O)[C@@H](N)Cc1ccc(O)cc1)[C@@H](C)O)[C@@H](C)O)[C@@H](C)CC)C(=O)N[C@@H](CCC(=O)O)C(=O)N[C@@H](CCCCN)C(=O)N[C@@H](CCCNC(=N)N)C(=O)N[C@@H](C)C(=O)N[C@@H](C)C(=O)NC(C)(C)C(=O)N[C@@H](CCC(=O)O)C(=O)N[C@@H](Cc1ccccc1)C(=O)N[C@H](C(=O)N[C@@H](CCC(=O)O)C(=O)N[C@@H](Cc1c[nH]c2ccccc12)C(=O)N[C@@H](CC(C)C)C(=O)N[C@@H](CCCCN)C(=O)N[C@@H](CC(N)=O)C(=O)N[C@H](C(=O)NCC(=O)N1CCC[C@H]1C(=O)N[C@@H](CO)C(=O)N[C@@H](CO)C(=O)NCC(=O)N[C@@H](C)C(=O)N1CCC[C@H]1C(=O)N1CCC[C@H]1C(=O)N1CCC[C@H]1C(=O)N[C@@H](CO)C(N)=O)[C@@H](C)O)[C@@H](C)CC)C(=O)O) [SEQ ID NO: 20] | 24.5 pM | 3310 pM | 23.2 pM
